Measurements taken from PMC10540216, “Activity Guided Azide-methyllysine Photo-trapping for Substrate Profiling of Lysine Demethylases” (Journal of the American Chemical Society, 2023).

System: KDM4A-I71AzF
Test: CASI: photo-crosslinking with HEK293T cell extracts, StrepTactin enrichment and LC-MS/MS proteomics;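 further: lysates from HEK293T cells pretreated with a KDM4 inhibitor to raise proteome methylation, affinity-purified after ±UV, gel-resolved, trypsin-digested, with exclusive unique peptides per protein averaged per condition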
Format: binding, human
Details: sheet "Final results but with 0.01"

Molecule | Fold change (+UV/-UV)
ADAS_HUMAN (protein, UniProt O00116 59-658, looked up) Alkyldihydroxyacetonephosphate …: KARRAASAATAAPTATPAAQESGTIPKKRQEVMKWNGWGYNDSKFIFNKKGQIELTGKRYPLSGMGLPTFKEWIQNTLGVNVEHKTTSKASLNPSDTPPSVVNEDFLHDLKETNISYSQEADDRVFRAHGHCLHEIFLLREGMFERIPDIVLWPTCHDDVVKIVNLACKYNLCIIPIGGGTSVSYGLMCPADETRTIISLDTSQMNRILWVDENNLTAHVEAGITGQELERQLKESGYCTGHEPDSLEFSTVGGWVSTRASGMKKNIYGNIEDLVVHIKMVTPRGIIEKSCQGPRMSTGPDIHHFIMGSEGTLGVITEATIKIRPVPEYQKYGSVAFPNFEQGVACLREIAKQRCAPASIRLMDNKQFQFGHALKPQVSSIFTSFLDGLKKFYITKFKGFDPNQLSVATLLFEGDREKVLQHEKQVYDIAAKFGGLAAGEDNGQRGYLLTYVIAYIRDLALEYYVLGESFETSAPWDRVVDLCRNVKERITRECKEKGVQFAPFSTCRVTQTYDAGACIYFYFAFNYRGISDPLTVFEQTEAAAREEILANGGSLSHHHGVGKLRKQWLKESISDVGFGMLKSVKEYVDPNNIFGNRNLL | 200
CKAP4_HUMAN (protein, UniProt Q07065 1-602, looked up) Cytoskeleton-associated …: MPSAKQRGSKGGHGAASPSEKGAHPSGGADDVAKKPPPAPQQPPPPPAPHPQQHPQQHPQNQAHGKGGHRGGGGGGGKSSSSSSASAAAAAAAASSSASCSRRLGRALNFLFYLALVAAAAFSGWCVHHVLEEVQQVRRSHQDFSRQREELGQGLQGVEQKVQSLQATFGTFESILRSSQHKQDLTEKAVKQGESEVSRISEVLQKLQNEILKDLSDGIHVVKDARERDFTSLENTVEERLTELTKSINDNIAIFTEVQKRSQKEINDMKAKVASLEESEGNKQDLKALKEAVKEIQTSAKSREWDMEALRSTLQTMESDIYTEVRELVSLKQEQQAFKEAADTERLALQALTEKLLRSEESVSRLPEEIRRLEEELRQLKSDSHGPKEDGGFRHSEAFEALQQKSQGLDSRLQHVEDGVLSMQVASARQTESLESLLSKSQEHEQRLAALQGRLEGLGSSEADQDGLASTVRSLGETQLVLYGDVEELKRSVGELPSTVESLQKVQEQVHTLLSQDQAQAARLPPQDFLDRLSSLDNLKASVSQVEADLKMLRTAVDSLVAYSVKIETNENNLESAKGLLDDLRNDLDRLFVKVEKIHEKV | 200
KT33A_HUMAN (protein, UniProt O76009 1-404, looked up) Keratin, type I cuticular …: MSYSCGLPSLSCRTSCSSRPCVPPSCHGCTLPGACNIPANVSNCNWFCEGSFNGSEKETMQFLNDRLASYLEKVRQLERDNAELENLIRERSQQQEPLVCASYQSYFKTIEELQQKILCSKSENARLVVQIDNAKLASDDFRTKYETELSLRQLVESDINGLRRILDELTLCRSDLEAQVESLKEELLCLKQNHEQEVNTLRCQLGDRLNVEVDAAPTVDLNQVLNETRSQYEALVETNRREVEQWFATQTEELNKQVVSSSEQLQSYQAEIIELRRTVNALEIELQAQHNLRDSLENTLTESEARYSSQLSQVQRLITNVESQLAEIRSDLERQNQEYQVLLDVRARLECEINTYRSLLESEDCKLPSNPCATTNACDKSTGPCISNPCGLRARCGPCNTFGY | 300
HNRPQ_HUMAN (protein, UniProt O60506 2-623, looked up) Heterogeneous nuclear …: ATEHVNGNGTEEPMDTTSAVIHSENFQTLLDAGLPQKVAEKLDEIYVAGLVAHSDLDERAIEALKEFNEDGALAVLQQFKDSDLSHVQNKSAFLCGVMKTYRQREKQGTKVADSSKGPDEAKIKALLERTGYTLDVTTGQRKYGGPPPDSVYSGQQPSVGTEIFVGKIPRDLFEDELVPLFEKAGPIWDLRLMMDPLTGLNRGYAFVTFCTKEAAQEAVKLYNNHEIRSGKHIGVCISVANNRLFVGSIPKSKTKEQILEEFSKVTEGLTDVILYHQPDDKKKNRGFCFLEYEDHKTAAQARRRLMSGKVKVWGNVGTVEWADPIEDPDPEVMAKVKVLFVRNLANTVTEEILEKAFSQFGKLERVKKLKDYAFIHFDERDGAVKAMEEMNGKDLEGENIEIVFAKPPDQKRKERKAQRQAAKNQMYDDYYYYGPPHMPPPTRGRGRGGRGGYGYPPDYYGYEDYYDYYGYDYHNYRGGYEDPYYGYEDFQVGARGRGGRGARGAAPSRGRGAAPPRGRAGYSQRGGPGSARGVRGARGGAQQQRGRGVRGARGGRGGNVGGKRKADGYNQPDSKRRQTNNQNWGSQPIAQQPLQGGDHSGNYGYKSENQEFYQDTFGQQWK | 200
MPP6_HUMAN (protein, UniProt Q99547 1-160, looked up) M-phase phosphoprotein 6: MAAERKTRLSKNLLRMKFMQRGLDSETKKQLEEEEKKIISEEHWYLDLPELKEKESFIIEEQSFLLCEDLLYGRMSFRGFNPEVEKLMLQMNAKHKAEEVEDETVELDVSDEEMARRYETLVGTIGKKFARKRDHANYEEDENGDITPIKAKKMFLKPQD | 200
K1H1_HUMAN (protein, UniProt Q15323 1-416, looked up) Keratin, type I cuticular Ha1: MPYNFCLPSLSCRTSCSSRPCVPPSCHSCTLPGACNIPANVSNCNWFCEGSFNGSEKETMQFLNDRLASYLEKVRQLERDNAELENLIRERSQQQEPLLCPSYQSYFKTIEELQQKILCTKSENARLVVQIDNAKLAADDFRTKYQTELSLRQLVESDINGLRRILDELTLCKSDLEAQVESLKEELLCLKSNHEQEVNTLRCQLGDRLNVEVDAAPTVDLNRVLNETRSQYEALVETNRREVEQWFTTQTEELNKQVVSSSEQLQSYQAEIIELRRTVNALEIELQAQHNLRDSLENTLTESEARYSSQLSQVQSLITNVESQLAEIRSDLERQNQEYQVLLDVRARLECEINTYRSLLESEDCNLPSNPCATTNACSKPIGPCLSNPCTSCVPPAPCTPCAPRPRCGPCNSFVR | 800
PDC6I_HUMAN (protein, UniProt Q8WUM4 2-868, looked up) Programmed cell death …: ATFISVQLKKTSEVDLAKPLVKFIQQTYPSGGEEQAQYCRAAEELSKLRRAAVGRPLDKHEGALETLLRYYDQICSIEPKFPFSENQICLTFTWKDAFDKGSLFGGSVKLALASLGYEKSCVLFNCAALASQIAAEQNLDNDEGLKIAAKHYQFASGAFLHIKETVLSALSREPTVDISPDTVGTLSLIMLAQAQEVFFLKATRDKMKDAIIAKLANQAADYFGDAFKQCQYKDTLPKEVFPVLAAKHCIMQANAEYHQSILAKQQKKFGEEIARLQHAAELIKTVASRYDEYVNVKDFSDKINRALAAAKKDNDFIYHDRVPDLKDLDPIGKATLVKSTPVNVPISQKFTDLFEKMVPVSVQQSLAAYNQRKADLVNRSIAQMREATTLANGVLASLNLPAAIEDVSGDTVPQSILTKSRSVIEQGGIQTVDQLIKELPELLQRNREILDESLRLLDEEEATDNDLRAKFKERWQRTPSNELYKPLRAEGTNFRTVLDKAVQADGQVKECYQSHRDTIVLLCKPEPELNAAIPSANPAKTMQGSEVVNVLKSLLSNLDEVKKEREGLENDLKSVNFDMTSKFLTALAQDGVINEEALSVTELDRVYGGLTTKVQESLKKQEGLLKNIQVSHQEFSKMKQSNNEANLREEVLKNLATAYDNFVELVANLKEGTKFYNELTEILVRFQNKCSDIVFARKTERDELLKDLQQSIAREPSAPSIPTPAYQSSPAGGHAPTPPTPAPRTMPPTKPQPPARPPPPVLPANRAPSATAPSPVGAGTAAPAPSQTPGSAPPPQAQGPPYPTYPGYPGYCQMPMPMGYNPYAYGQYNMPYPPVYHQSPGQAPYPGPQQPSYPFPQPPQQSYYPQQ | 200
